Test results taken from the DeepSol protein solubility set.

assay: soluble on expression in E. coli; label from the status in PepcDB or PDB records

Sequence	soluble on expression in E. coli
MKIAIPKERRPGEDRVAISPEVVKKLVGLGFEVIVEQGAGVGASITDDALTAAGATIASTAAQALSQADVVWKVQRPMTAEEGTDEVALIKEGAVLMCHLGALTNRPVVEALTKRKITAYAMELMPRISRANSMDILSSQSNLAGYRAVIDGAYEFARAFPMMMTAAGTVPPARVLVFGVGVAGLQAIATAKRLGAVVMATDVRAATKEQVESLGGKFITVDDEAMKTAETAGGYAKEMGEEFRKKQAEAVLKELVKTDIAITTALIPGKPAPVLITEEMVTKMKPGSVIIDLAVEAGGNCPLSEPGKIVVKHGVKIVGHTNVPSRVAADASPLFAKNLLNFLTPHVDKDTKTLVMKLEDETVSGTCVTRDGAIVHPALTGQGA	soluble
MKIALMMENSQASKNAIIYNELSAVANEKGFPVFNVGMCDENDHHLTYIHLGIMASILLNANAVDFVVTGCGTGQGALMSLNIHPGVICGYCIDPADAFLFAQINNGNALSLPFAKGFGWGAELNVRFIFEKAFTGRKGEGYPPERKAPQVRNAGILNQVKAAVVKENYLDTLRAIDPELVKTAVSGPRFQQCLFENGQNKEIEAFVREMLG	not soluble
MKIALSFLFLTSTFSNAGKIGRLQSVAVSGQLNCLGKPAVGVRIDLMESDNNGEETGIIDDNDFMGYTYTDSAGFFNMSGSEVEISGIEPYVNIFHKCNDGLSPCQRQLRVDIPKSATASGPAPNETFSIGTLELSSRKVIGERRSCAYRNLTQTS	not soluble
MKIAVVGCDGFGKVHLRAMRNISGIEYYVFSRNEEKARECMKEFNAEGYFTRYEDVIKSNVDIVDLLVSHDQHYPMGVMAMKAGKHLMLEKPIARTIEEAMGLINTSKDTKRKFMVLEQFYFESSVRKAKELLPRLGNLSLIIVRSIHLYQ	not soluble
MKICLQAGAVKQIENYFSISTDGVEIRIWFLTDSVVRIRAGFDGDFVEESYSLVTTAWEDRMDMFMKHYRKRIQTAEAQLTDGLEKAVIQGKVLRVEVEKNPFRICVYDAENTQIHADIVDLAYMEDSNNRRIHTSEITEDDCFY	not soluble
MKIDLNADLGEGCASDAELLTLVSSANIACGFHAGDAQIMQACVREAIKNGVAIGAHPSFPDRENFGRSAMQLPPETVYAQTLYQIGALATIARAQGGVMRHVKPHGMLYNQAAKEAQLADAIARAVYACDPALILVGLAGSELIRAGKQYGLTTREEVFADRGYQADGSLVPRSQSGALIENEEQALAQTLEMVQHGRVKSITGEWATVAAQTVCLHGDGEHALAFARRLRSAFAEKGIVVAALEHHHHHH	soluble
MKIEVVSALPHSTVHSAVLSRRHRSVICAGPYEVLPLEGCSEPLPSTSTLSELPIECLRLSTDERTIGAATNAILKVADIITGHEVRNLTGHTLPITSLAASKFNPYCWYTGSSDCDWTQWDTRMNPSKIFGSKTPGVVRSIALSPGDRYVAVGTDETIQIFDARQREFIKTFNCSGHALELHPSDVLLSSVGHDRIVRFFCLETFEMISQSDPFLDDIQASAFDTHVMIAATNDSINLLTWEPCCDILTTVPLKNVEKVVNVNANGLDLDFICIGDNTERLEMRTYAIEELLSYSPSHELCGSIYEEDEDVDNSPIDEVKALPELTELSNLPPRSPGLSCEETETSASPVNSSSSHSSPTSPVKPAPVKHRSASQKLPGKSTKTLNPKPAGSTRSVTPVSTKPPRTFGTAKSVIVSSKPSLSGYNNRANPSPSMSDLRTTKSMAGSTTSLLSERAPKKRSTSSRRNQEPITITYIGRPRTPSEGDVASTVSSSTSRNRRPSPSVAKKTSPPSIYAITSSPAKRASSTASGPTARRQNSTSSVTSTTSAKTPVGVWGACIETVHDIGIVAKKENRNIRRLKMLTSRRTSNVDIPPEVCSDEQLVLTATRILSRRNDWSLNSCHAYLPVIIDNIASVDVTNRAIALEGLAAIADTLGERLVKFASMNSHRIGVDVAAEERAEKAKACVQHLRSLVKKRDWYYKQLDEPSILKLDPILELLKKI	not soluble
MKIGIIGAGLGGLLSGAILSKEHSITIYEKLPFVGGRFTNIPYKGFQLTTGALHMIPHGNEGYLAQTLRRAGSNVKIVNSEPDGYFRINGKNHEYKDIFGLVSAKDKLKALKLAASLKLGKIDKNMPFGEFLEDIPLALDVGNSFSGWALSLNAYDTPMSEIIEISKLYHKFGGPGIPVGGCKGVIDSLVEIINKNGGKIYTSHAIEKIEVEENNVFLDSEQFDIVISNASPKLTEKMSNIKFIEKEPVPSKGIKINVASKLSLVDGASVIFTTDCERINGLNQPSNVDRSLAKEDYNLIMLHATQIKNNTKEEISLALNDIESLFGGKDYEVISIQSYGNGWPVNHASNGTDLNPIVKDNLLLVGDGVKGVGGIEVEGVAMSVIAVLNHIEKLKK	soluble
